From patent US20170298359, “OLIGONUCLEOTIDE TARGETED TO THE A20-THREE PRIME UNTRANSLATED REGION” (Max-Delbrück-Centrum für Molekulare Medizin in …, published 2017)

How the values were obtained:
[1] = target: T1, RC3H1-N2 (Roquin-1, RING, ROQ and CCCH zinc finger domains) (Homo sapiens, UniProt Q5TC82 Q5TC82:2-452); test: EMSA; same buffer; higher affinity than RC3H1-N1; details: tags: N-terminal His7 cleaved with TEV protease, E. coli Rosetta 2 (DE3), pQLinkH; label: 5'-32P; hairpin
T1 sequence: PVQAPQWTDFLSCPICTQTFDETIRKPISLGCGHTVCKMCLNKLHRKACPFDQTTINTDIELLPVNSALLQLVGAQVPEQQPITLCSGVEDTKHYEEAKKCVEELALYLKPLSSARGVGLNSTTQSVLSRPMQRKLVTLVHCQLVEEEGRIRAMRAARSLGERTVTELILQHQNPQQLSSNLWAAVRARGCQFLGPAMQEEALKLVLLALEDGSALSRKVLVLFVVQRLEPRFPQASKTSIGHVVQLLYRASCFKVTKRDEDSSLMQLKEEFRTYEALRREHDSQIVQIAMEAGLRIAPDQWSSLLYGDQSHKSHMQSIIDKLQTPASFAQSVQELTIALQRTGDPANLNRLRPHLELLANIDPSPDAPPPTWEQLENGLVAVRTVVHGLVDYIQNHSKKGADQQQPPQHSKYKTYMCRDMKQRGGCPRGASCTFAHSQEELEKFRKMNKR
Procedure: (§1) The EMSA was performed as described before⁴⁹ with the following modifications: RNA was prepared by 5′ end-labeling of commercially synthesized RNA oligonucleotides with [γ-³²P]-ATP using T4 polynucleotide kinase (NEB). Labeled RNA was gel purified and eluted and adjusted with H₂O to 1 pmol/μl. 50 fmol of labelled RNA was used per 20 μl reaction. Prior to binding reactions, a master mix containing labelled RNA, lx binding buffer (20 mM Tris-HCl (pH 7.5), 50 mM KCl, 5 mM MgCl₂, 20 μM ZnSO₄, 10% glycerol), 2 mM DTT, 0.05 mg/ml BSA, and 5 μg/ml heparin was heated at 90° C. for 1 min and gradually cooled down to room temperature. In parallel, a dilution series of 10× protein stocks was prepared in 1× protein dilution buffer (1× binding buffer, 5 μg/ml heparin). For each binding reaction, 2 μl of the 10× protein stock was added to 18 μl of the mastermix at room temperature for 2 h. After addition of 4 μl 6× loading buffer (30% glycerol, bromphenol blue, xylene cyanol), RNP complexes were resolved by nondenaturing PAGE (6% polyacrylamide, 0.5×TBE, 5% glycerol) in ice-cold 0.5×TBE buffer containing 20 μM ZnSO₄ at 100 V for 40 min. The protein-bound RNA and the free RNA were quantified using a phosphorimager.

[2] = target: T2, RC3H1-N1 (Roquin-1, RING and ROQ domains) (Homo sapiens, UniProt Q5TC82 Q5TC82:2-399); test: EMSA; 20 mM Tris-HCl pH 7.5, 50 mM KCl, 5 mM MgCl2, 20 uM ZnSO4, 5 ug/ml heparin, room temperature; binding independent of CCCH zinc finger; details: tags: N-terminal His7 cleaved with TEV protease, E. coli Rosetta 2 (DE3), pQLinkH; label: 5'-32P; hairpin
T2 sequence: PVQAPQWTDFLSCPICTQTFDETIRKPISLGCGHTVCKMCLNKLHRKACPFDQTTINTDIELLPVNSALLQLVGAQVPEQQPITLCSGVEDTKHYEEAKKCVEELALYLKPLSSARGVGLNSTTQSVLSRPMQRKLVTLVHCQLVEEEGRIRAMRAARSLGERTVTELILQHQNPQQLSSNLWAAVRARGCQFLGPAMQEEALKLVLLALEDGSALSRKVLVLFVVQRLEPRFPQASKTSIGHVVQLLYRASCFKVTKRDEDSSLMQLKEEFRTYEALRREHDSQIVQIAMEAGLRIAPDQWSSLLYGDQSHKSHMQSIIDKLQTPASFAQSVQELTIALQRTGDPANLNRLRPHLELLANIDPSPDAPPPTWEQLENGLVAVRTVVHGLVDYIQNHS
Procedure: as §1

[3] = target: T1, RC3H1-N2 (Roquin-1, RING, ROQ and CCCH …); test: EMSA; same buffer; similar to RC3H1-N1; details: tags: N-terminal His7 cleaved with TEV protease, E. coli Rosetta 2 (DE3), pQLinkH; label: 5'-32P; hairpin
Procedure: as §1

[4] = target: T1, RC3H1-N2 (Roquin-1, RING, ROQ and CCCH …); test: EMSA; same buffer; higher affinity than for the 23 nt hairpin; reduced by antisense LNA SEQ 6 (FIG. 5c); details: tags: N-terminal His7 cleaved with TEV protease, E. coli Rosetta 2 (DE3), pQLinkH; label: 5'-32P
Procedure: as §1

B1: A20 23 nt hairpin (ssRNA)
RNA: ACCCUUACAUUAUGUAUGAGGGA
binding result [1]: binds

B2: ICOS CDE-like stem-loop 13 nt (ssRNA)
RNA: AUUUCUGUGAAAU
binding result [2]: binds
binding result [3]: binds

B3: A20 37 nt (ssRNA)
RNA: AUAUAUAAUAUACCCUUACAUUAUGUAUGAGGGAUUU
binding result [4]: binds
